According to patent US20190338035A1:

Experiments:
[1] = biological target: mutant histone K27M-H3.3 26-35 peptide/HLA-A*02:01 complex on T2 cells (human); assay: flow cytometry on T2 cells, secondary antibody only, no phage (background control)
[2] = biological target: HLA-A*02:01 on T2 cells without peptide loading (human); assay: as above
[3] = biological target: WT H3.1 26-35 peptide/HLA-A*02:01 complex on T2 cells (human); assay: as above
[4] = biological target: control peptide mixture P20/HLA-A*02:01 complexes on T2 cells (human); assay: as above
[5] = biological target: WT H3.3 26-35 peptide/HLA-A*02:01 complex on T2 cells (human); assay: as above
[6] = biological target: mutant histone K27M-H3.1 26-35 peptide/HLA-A*02:01 complex on T2 cells (human); assay: as above
[7] = biological target: mutant histone K27M-H3.3 26-35 peptide/HLA-A*02:01 complex on T2 cells (human); assay: flow cytometry, BB7.2 staining of T2 cells
[8] = biological target: HLA-A*02:01 on T2 cells without peptide loading (human); assay: flow cytometry, BB7.2 staining of T2 cells
[9] = biological target: WT H3.1 26-35 peptide/HLA-A*02:01 complex on T2 cells (human); assay: flow cytometry, BB7.2 staining of T2 cells
[10] = biological target: control peptide mixture P20/HLA-A*02:01 complexes on T2 cells (human); assay: flow cytometry, BB7.2 staining of T2 cells
[11] = biological target: WT H3.3 26-35 peptide/HLA-A*02:01 complex on T2 cells (human); assay: flow cytometry, BB7.2 staining of T2 cells
[12] = biological target: mutant histone K27M-H3.1 26-35 peptide/HLA-A*02:01 complex on T2 cells (human); assay: flow cytometry, BB7.2 staining of T2 cells
[13] = biological target: mutant histone K27M-H3.3 26-35 peptide/HLA-A*02:01 complex on T2 cells (human); assay: flow cytometry on T2 cells, anti-M13 + PE anti-mouse IgG, no phage (background control)
[14] = biological target: HLA-A*02:01 on T2 cells without peptide loading (human); assay: as above
[15] = biological target: WT H3.1 26-35 peptide/HLA-A*02:01 complex on T2 cells (human); assay: as above
[16] = biological target: control peptide mixture P20/HLA-A*02:01 complexes on T2 cells (human); assay: as above
[17] = biological target: WT H3.3 26-35 peptide/HLA-A*02:01 complex on T2 cells (human); assay: as above
[18] = biological target: mutant histone K27M-H3.1 26-35 peptide/HLA-A*02:01 complex on T2 cells (human); assay: as above
[19] = biological target: mutant histone K27M-H3.3 26-35 peptide/HLA-A*02:01 complex on T2 cells (human); assay: flow cytometry, phage on T2 cells, anti-M13 + PE anti-mouse IgG
[20] = biological target: HLA-A*02:01 on T2 cells without peptide loading (human); assay: as above
[21] = biological target: WT H3.1 26-35 peptide/HLA-A*02:01 complex on T2 cells (human); assay: as above
[22] = biological target: control peptide mixture P20/HLA-A*02:01 complexes on T2 cells (human); assay: as above
[23] = biological target: WT H3.3 26-35 peptide/HLA-A*02:01 complex on T2 cells (human); assay: as above
[24] = biological target: mutant histone K27M-H3.1 26-35 peptide/HLA-A*02:01 complex on T2 cells (human); assay: as above

**Q.** Which results are given for “R-PE conjugated horse anti-mouse IgG (antibody)”?
**A.** Median MFI (PE-A) [1]: 83 MFI; Median MFI (PE-A) [2]: 82 MFI; Median MFI (PE-A) [3]: 83 MFI; Median MFI (PE-A) [4]: 82 MFI; Median MFI (PE-A) [5]: 83 MFI; Median MFI (PE-A) [6]: 85 MFI

**Q.** BB7.2 (antibody) was tested. Which Median MFI (PE-A) [7] did it give?
**A.** Its Median MFI (PE-A) is 9650 MFI.

**Q.** What about the Median MFI (PE-A) [8] of the same substance?
**A.** Its Median MFI (PE-A) is 3600 MFI.

**Q.** What about the Median MFI (PE-A) [9] of the same substance?
**A.** The Median MFI (PE-A) was 8700 MFI.

**Q.** What about the Median MFI (PE-A) [10] of the same substance?
**A.** The Median MFI (PE-A) was 11300 MFI.

**Q.** What about the Median MFI (PE-A) [11] of the same substance?
**A.** Its Median MFI (PE-A) is 8650 MFI.

**Q.** What about the Median MFI (PE-A) [12] of the same substance?
**A.** The Median MFI (PE-A) was 9530 MFI.

**Q.** mouse anti-M13 mAb (antibody) was tested. Which Median MFI (PE-A) [13] did it give?
**A.** The Median MFI (PE-A) was 83 MFI.

**Q.** And the Median MFI (PE-A) [14]?
**A.** The Median MFI (PE-A) was 80 MFI.

**Q.** And the Median MFI (PE-A) [15]?
**A.** The Median MFI (PE-A) was 86 MFI.

**Q.** What about the Median MFI (PE-A) [16] of the same substance?
**A.** The Median MFI (PE-A) was 82 MFI.

**Q.** What about the Median MFI (PE-A) [17] of the same substance?
**A.** The Median MFI (PE-A) was 83 MFI.

**Q.** And the Median MFI (PE-A) [18]?
**A.** Its Median MFI (PE-A) is 85 MFI.

**Q.** What does the source list for negative control phage?
**A.** Median MFI (PE-A) [19]: 133 MFI; Median MFI (PE-A) [20]: 122 MFI; Median MFI (PE-A) [21]: 131 MFI; Median MFI (PE-A) [22]: 124 MFI; Median MFI (PE-A) [23]: 128 MFI; Median MFI (PE-A) [24]: 130 MFI
